Measured values as given in US20080096809A1.

Biological target: Tar-1 all-L NBD peptide (Escherichia coli)
Assay: FRET in PE/PG (7:3 w/w) SUV, NBD donor and rhodamine-TAMRA acceptor, acceptor-to-lipid ratio 1:7500

B1: Tar-1 diastereomeric rhodamine peptide (peptide)
peptide: KKKMVLGVFALLQLISGSLKK
modifications: not checked
In the case of B1, the energy transfer is reported as 30%.
